Test results from paper PMC10371251.

Tested on: FLAG-cGAS (Homo sapiens)
Assay: pull-down (streptavidin, Western blot; ligand transfected into HEK293T 2 h)
Details: 5' or 3' position of biotin not stated, forward strand biotinylated, reverse unmodified, HEK293T transfected with 4 ug/mL biotin-ISD45 for 2 h, then streptavidin IP, IP buffer, pH and temperature not in the material (oligo annealing: 5 mM Tris pH 7.)

Question: What does the source list for biotinylated ISD45?
Answer: binding signal (fold of empty vector) (WT SRC-HA coexpressed): 0.466; binding signal (fold of empty vector) (empty vector, no SRC-HA, non-biotinylated ISD45 background 0.1436): 1
